# Laboratory results taken from patent publication US20230303681A1 (published 2023).
# Key:
# [1] = biological target: T1, GST-fusion human TMEM106B truncated (human); assay: epitope binning, array SPR (Community 3, Bin 5)
# T1 construct: also called GST-TMEM106B-truncated protein; GST-TMEM106B (truncated)
# Description: Epitope binning of the anti-TMEM106B antibodies was performed by Carterra (Salt Lake City, Nevada, USA) using a pre-mix epitope binning approach.
# human TMEM106B [2] = biological target: T2, human TMEM106B (human, UniProt Q9NUM4 2-274); assay: FACS A549
# T2 construct: Full-length, on transiently transfected HEK293 cells, or natively expressed on HeLa, U251 and A549 cells; also called huTMEM106B; huTMEM
# human TMEM106B [3] = biological target: T2, human TMEM106B; assay: FACS U251;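 further: flow cytometry of cells exposed to antibody (purified at 10 µg/mL, or hybridoma supernatant) for 1 h on ice, with propidium iodide-positive dead cells gated out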
# Description: All cells were cultured in either T75 or T150 flasks. […] The enzyme was quenched by addition of fresh media, and the cells were then distributed into 96-well plates for FACS analysis.
# FACS analysis was performed as follows. Each cell type was aliquoted in 96-well round bottom plates (2x10^5 cells per well), washed once with FACS buffer (PBS + 2% FBS + 1 mM EDTA), and incubated with 50 µL of hybridoma supernatant or purified antibody (10 µg/ml in FACS buffer) on ice for 1 hour. […] Following this secondary incubation, the cells were again washed 2x with ice-cold FACS buffer and resuspended in a final volume of 50 µL of FACS buffer + 0.25 µl/well propidium iodide (Fisher Scientific # BDB556463). Analysis was performed on a FACSCanto system (BD Biosciences) or iQue (Intellicyt), with sort gates drawn to exclude dead (i.e., propidium iodide positive) cells.
# Data is presented as mean fluorescence intensity (MFI).
# human TMEM106B [4] = biological target: T2, human TMEM106B; assay: FACS HEK+huTMEM, 10 ug/ml;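 further: purified mouse IgG antibodies at 10 µg/ml bound to HEK293 cells transiently expressing human TMEM106B, measured by flow cytometry as median fluorescence intensity of propidium iodide negative live cells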
# Description: (§1) Purified anti-TMEM106B antibodies were evaluated for their binding affinity to various TMEM106B-expressing cell lines including HEK293 transiently transfected with human/cyno/mouse TMEM106B, as well as HeLa cells and A549 cells. Antibodies tested for this experiment were mouse IgGs purified from hybridoma supernatant. Affinity binding to cells was determined as follows. Briefly, 1x10^5 cells were aliquoted per well in 96-well round bottom plates and incubated with 50 µL of purified anti-TMEM106B antibody at various concentrations (10x dilutions starting at 10 µg/ml) in FACS buffer (PBS + 2% FBS + 1 mM EDTA). […] Sorting was performed on a iQue (Intellicyt), with sort gates drawn to exclude dead (propidium iodide +) cells. Binding data was analyzed using median fluorescent intensity (MFI) and graphed in Prism. Values presented are MFI.
# human TMEM106B [5] = biological target: T2, human TMEM106B; assay: FACS A549, 10 ug/ml
# Description: as §1
# human TMEM106B [6] = biological target: T2, human TMEM106B; assay: FACS, HEK293 transfectants;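 on fold over negative controls: hybridoma supernatants incubated 30 min on ice with human TMEM106B-expressing HEK293 cells, binding read as anti-mouse-APC median fluorescence on live cells, relative to secondary-antibody-only wells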;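 on fold-change over parental HEK293: flow cytometry binding of hybridoma supernatants to HEK293 cells transiently expressing human, cyno or mouse TMEM106B, read as anti-mouse-APC median fluorescence, live cells only, 30 min on ice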
# human TMEM106B [7] = biological target: T2, human TMEM106B; assay: FACS HEK+huTMEM, 0.1 ug/ml;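 further: flow cytometry binding of purified mouse IgG antibodies to HEK293 cells transiently expressing TMEM106B, read as median fluorescence intensity with propidium iodide positive dead cells gated out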
# human TMEM106B [8] = biological target: T2, human TMEM106B; assay: FACS A549, 1 ug/ml
# Description: as §1
# mouse TMEM106B [9] = biological target: T3, mouse TMEM106B (mouse, UniProt Q80X71 2-275); assay: FACS, HEK293 transfectants;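 further: flow cytometry binding of hybridoma supernatants to HEK293 cells transiently expressing human, cyno or mouse TMEM106B, read as anti-mouse-APC median fluorescence, live cells only, 30 min on ice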
# T3 construct: on transiently transfected HEK293 cells, or natively expressed on mouse Neuro2a cells; also called moTMEM106B; murine TMEM106B
# [10] = biological target: T4, cynomolgus (cyno) TMEM106B (cynomolgus, UniProt Q9NUM4 2-274 (human entry)); assay: FACS, HEK293 transfectants;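 further: flow cytometry binding of hybridoma supernatants to HEK293 cells transiently expressing human, cyno or mouse TMEM106B, read as anti-mouse-APC median fluorescence, live cells only, 30 min on ice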
# T4 construct: on transiently transfected HEK293 cells
# human TMEM106B [11] = biological target: T2, human TMEM106B; assay: FACS, HEK293 transfectants; remark: listed apart in the source;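 on fold over negative controls: hybridoma supernatants incubated 30 min on ice with human TMEM106B-expressing HEK293 cells, binding read as anti-mouse-APC median fluorescence on live cells, relative to secondary-antibody-only wells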;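 on fold-change over parental HEK293: flow cytometry binding of hybridoma supernatants to HEK293 cells transiently expressing human, cyno or mouse TMEM106B, read as anti-mouse-APC median fluorescence, live cells only, 30 min on ice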
# human TMEM106B [12] = biological target: T2, human TMEM106B; assay: FACS HEK+huTMEM, 1.0 ug/ml
# Description: as §1
# mouse TMEM106B [13] = biological target: T3, mouse TMEM106B; assay: FACS Neuro2a;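 further: flow cytometry of cells stained with antibody or hybridoma supernatant (purified antibody at 10 µg/ml) for 1 h on ice, propidium iodide–positive dead cells gated out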
# GST (Pierce) [14] = biological target: T5, GST (Pierce) (UniProt P08515 1-218 = GST, limits assumed); assay: ELISA, coated GST;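 further: ELISA on plates coated with GST alone at 1-10 µg/ml, antibodies applied at 100-1000x dilution, bound antibody detected by peroxidase substrate colour after acid stop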
# T5 construct: control for the GST part of the fusion protein; also called GST protein; Glutathione-S-transferase
# Description: Briefly, 96-well polystyrene plates were coated with 1-10 µg/ml of recombinant GST-TMEM106B-truncated protein or GST (Pierce) in PBS either at 370 Cfor 1-4 hours or overnight at 4 °C. Coated plates were then blocked with 5% BSA for 1-hour, washed 3×150 µL in TBST (Tris-buffered saline + 0.1% Tween20), and then the antibodies were added at various dilutions (100-1000x) in PBS. After 1-hour incubation (room temperature, with shaking), the plates were washed 3x150 µL in TBST. […] After a final set of washes (3×150µL in TBST), 100 µL of peroxidase substrate was added for 1 minute; the reaction was then quenched with 2N sulfuric acid (100 µL).
# human TMEM106B [15] = biological target: T2, human TMEM106B; assay: FACS HeLa;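 further: flow cytometry of cells incubated with hybridoma supernatant or purified antibody at 10 µg/ml for 1 h on ice, propidium iodide–positive dead cells gated out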
# human TMEM106B [16] = biological target: T2, human TMEM106B; assay: FACS HEK+huTMEM, 0.01 ug/ml
# GST (Pierce) [17] = biological target: T5, GST (Pierce); assay: array SPR, Ab immobilised
Binder,binding result [1],MFI (human TMEM106B [2]),MFI (human TMEM106B [3]),MFI (human TMEM106B [4]),MFI (human TMEM106B [5]),fold over negative controls (human TMEM106B [6]),MFI (human TMEM106B [7]),MFI (human TMEM106B [8]),fold-change over parental HEK293 (mouse TMEM106B [9]),fold-change over parental HEK293 [10],fold-change over parental HEK293 (human TMEM106B [11]),MFI (human TMEM106B [12]),MFI (mouse TMEM106B [13]),binding result (GST (Pierce) [14]),MFI (human TMEM106B [15]),MFI (human TMEM106B [16]),binding result (GST (Pierce) [17])
"anti-TMEM106B antibody TM-14 (antibody, V domains shown, mouse IgG from hybridoma) VH: QVQLQQSGPELVRPGTSVKVSCKASGYAFTNYLIEWVKQRPGQGLEWIGVINPGGGNTDYSEKFKDKATLTADKSSNTAYIQLSSLTSEDSAVYFCARSPYSSYVGYAVDYWGQGTSVTVSS VL: DIQMTQSPSSLSASLGERVSLTCRASQDIGSNLNWLQQEPDGTIKRLIYATSSLDSGVPKRFSGSRSGSDYSLTISSLESEDFVVYYCLQYASSPRTFGGGTRLEIK",no binding (tested: 55 nM antigen),896,270,1190,438,> 2 fold,364,409,1.77 fold,4.56 fold,3.96 fold,680,300,no binding,307,314,
"anti-TMEM106B antibody TM-50 (antibody, V domains shown, mouse IgG from hybridoma) VH: QVQLKESGPVLVAPSQSLSITCTVSGFSLTNYGVHWVRQPPGKGLEWLGVIWAGGNTNYNSALMSRLSISKDNSKSQVFLKMNSLQTDDTAMYYCAKEAKLLRSYAMDYWGQGTLVTVSA VL: DVQMTQTTSSLSASLGDRVTISCRASQDINNYLYWYQQKPDGTVKLLIYYTSMLHSGVPSRFSGSGSGTDYSLTISNLEQEDIATYFCQQGSTLMYTFGGGTKLEIK",no binding (tested: 55 nM antigen),580,260,396,445,> 2 fold,305,381,17.5 fold,17.8 fold,16 fold,314,257,,159,294,no binding
"anti-TMEM106B antibody TM-33 (antibody, V domains shown, mouse IgG from hybridoma) VH: EFQLQQSGPELVKPGASVKISCKASGYSFTDYNMNWVKQSNGKSLEWIGVINPNYGTTSYNQKFKGKATLTVDQSSSTAYMQLNSLTSEDSAVYYCASSYWGQGTLVTVSA VL: DIVMTQSQKFMSTTVGDRVSITCKASQNVGTAVAWYQQKPGQSPKLLIYSASNRYTGVPDRFTGSGSGTDFTLTISNMQSEDLADYFCQQYSSYPYTFGGGTKLEIK",no binding (tested: 55 nM antigen),298,202,12100,514,> 2 fold,1750,366,45.8 fold,7.74 fold,10.2 fold,5630,233,no binding,148,651,
"anti-TMEM106B antibody TM-31 (antibody, V domains shown, mouse IgG from hybridoma) VH: QVQLQQSGAELAKPGASVKVSCKASGYTFISYWMNWVKQRPGQGLEWIGYINPTSGYTRYNQKFKDKATLTADKSSSTAYMQLSSLTYEDSAVYYCARSPPTVVLIGYFDYWGQGTTLTVSS VL: DIKMTQSPSSMYASLGERVTFTCKASQDINSYLSWFQQKPGKSPKTLIYRGNGLVDGVPSRFSGSGSGQDYSLTISSLEYEDMGIYYCLQYDEFPFTFASGTKLEIK",no binding (tested: 55 nM antigen),,352,6060,527,> 2 fold,1390,403,68.7 fold,64.7 fold,22.1 fold,3680,325,no binding,799,596,
"anti-TMEM106B antibody TM-8 (antibody, V domains shown, mouse IgG from hybridoma) VH: QIQLVQSGPELKKPGETVKISCKASGYTFTDYPMHWVKQAPGKGFKWMGVIYTDTGEPKYAEVFKGRFAFSLETSASTAYLQINNLKNEDTATYFCVRRLAYWGQGTLVTVSA VL: DIKMTQSPSSMYASLGERVTITCKASQDINSYLSWFQQKPGKSPKTLIFRANRLVDGVPSRFSGSGSGQDYSLTISSLEYEDMGIYYCLQYDEFPLTFGAGTKLEMK",no binding (tested: 55 nM antigen),554,304,465,492,> 2 fold,305,393,1.63 fold,2.62 fold,2.1 fold,317,370,no binding,568,301,
"anti-TMEM106B antibody TM-49 (antibody, V domains shown, mouse IgG from hybridoma) VH: QVQLQQPGAELVRPGSSVKLSCKASGYTFTRFWMHWVKQRPIQGLEWIGNIDPSDSQTHYNQKFKDKATLTVDKSSSTAYMQLSSLTSEDSAVYYCARLITVDYAMDYWGQGTSVTVSS VL: QIVLTQSPAIMSASPGEKVTISCSASSSVSYMYWYQQKPGSSPKPWIHRTSNLASGVPVRFSGSGSGTSYSLTISSMEAEDAATYYCQQYHSYPPTFGAGTKLELK",no binding (tested: 55 nM antigen),924,434,16500,613,> 2 fold,3030,473,21.3 fold,13.8 fold,15.6 fold,15700,291,,187,756,no binding
"anti-TMEM106B antibody TM-15 (antibody, V domains shown, mouse IgG from hybridoma) VH: QVQLQQPGAEFVRPGASVKLSCKASGYTFTNYWITWVKQRPGHGLEWIGDIYPGSGNSNYNESFKRKATLTVDTSSSTAYMHLSSQTSEDSAVYFCARKAYGGFPYWGQGTLVTVSA VL: DIQMTQSPASLSVSVGETVTITCRVSENIYNNLAWYQQKQEKSPQLLVFAATNLADGVPSRFSGSGSGTQFSLKINSLQSEDFGTYYCQHFWDTPFTFGSGTKLEIK",no binding (tested: 55 nM antigen),938,382,63100,1980,> 2 fold,2060,650,46.8 fold,57.7 fold,31.4 fold,14300,470,no binding,660,584,
"anti-TMEM106B antibody TM-6 (antibody, V domains shown, mouse IgG from hybridoma) VH: QVQLQQSGAELVKPGASVKLSCKASGYTFTEYTIHWVKQRSGQGLEWIGWFYPGSTYIDYNEKFKDKATLTADKSSSTVYLELSRLTSEDSAVYFCARHEEDYSNWFPFWGQGTLVTVSA VL: DIQMSQSSSYLSVSLGGRVTITCKASDHINNWLAWYQQKPGNAPRLLISGATSLETGVPSRFSGSGSGKDYTLSITSLQTEDVATYYCQQYWSSPYTFGGGTKLEIK",no binding (tested: 55 nM antigen),1100,304,581,544,> 2 fold,327,418,1.25 fold,1.25 fold,4.13 fold,393,371,no binding,520,294,
"anti-TMEM106B antibody TM-52 (antibody, V domains shown, mouse IgG from hybridoma) VH: QVQLQQPGAELVKPGASVKLSCKASGYTFTNYWMHWVKQRPGQGLDWIGNIDPSDSETHYNQKFKDKATLTVDKVSSTAYMQLSSLTSEDSAVYYCARRGYYGRSPFAYWGQGTLVTVSA VL: ENVLTQSPAIMSASPGEKVTMTCSASSSVSYMHWYQQKSNTSPKLWIYDTSKLASGVPGRFSGSGSGNSYSLTISSAEAEDVATYYCFQGSGYPLTFGAGTKLELK",no binding (tested: 55 nM antigen),987,341,7020,443,> 2 fold,1940,401,0.67 fold,22.6 fold,17.3 fold,8200,210,,227,451,no binding
